According to publication PMC12149299 (2025):

Tests used:
[1] = biological target: HIV-1 gp120 protein from the JRCSF.JB strain (HIV-1, UniProt P20871 32-503); assay: BLI
[2] = biological target: HIV-1 gp120 protein from the YU2.DG strain (HIV-1, UniProt P35961 32-498); assay: BLI

B1: FD22 (antibody)
chain 1: QVQLSQSGGGAVQPGKSLTLSCRAYGFHLFSYVVVWVRQTPQNGLEWVAGAASGGWPQEFMNSVRGRFSISRDDYTVSLQMNALRVDDSGLYFCAQERGLHRLDGAVKFGRWFRAWGQGSQVVVTS
chain 2: QSALTQPASVSGSPGQSITLSCTGADNSVSWYQVVPGRAPKLLIFEVNVRPSEVSDRFSGSKSGDTASLTISRLQIEDESDYYCVTRRGDVTYLFGSGTRVSVL
modifications: biotin (EZ-Link NHS-LC-Biotin) in the competition ELISA only | biotin (EZ-Link NHS-LC-Biotin) in the competition ELISA only
B1 gave a Kd [1] of 18.1 nM and a Kd [2] of 12.1 nM.
